Results: the nanobody polyreactivity screen of Harvey et al. (2022)

Assay: yeast display, Sf9 membrane polyspecificity reagent, FACS + sequencing; frameworks hold sequencing errors
Summary of the method: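 After 36–48 hours of galactose induction, yeast (Saccharomyces cerevisiae BJ5465) displaying a synthetic nanobody library were stained at 4 °C for 1 hour with 10% biotinylated, detergent-solubilized Sf9 membrane reagent. Streptavidin microbeads enriched the stained cells before FACS sorting into low and high (top ~1%) gates on anti-HA and streptavidin fluorescence. Each clone's polyreactivity label reflects its gate of origin.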

Sequence | polyreactivity (PSR sort gate)
QVQLVESGGGLVQAGGSLRLSCAASGSTFAWYTMGWYRQAPGKERELVASITSTGSTNYADSVKGRFTISRDNAKNTVYLQMNSLKPEDTAVYYCAAAVRAWYRRLYDYWGQGTQVTVSS | high polyreactivity
QVQLVETGGGLVQAGGSLRLSCAASGITFYEYALGWYRQAAGKERELVAAISTSGGNTYYAESVKGRFTISRDNAKTTVYLQMNSLKPEDTAVFYCAAQGTASSYSGGDYWGQGTQVTVSS | low polyreactivity
QVQLVESGGGLGQAGGSLRLSCAASGSIFHPYAMGWYRQAPGKERELVASITSSGGSTYYADSVKGRFTISRDTAKNTVYLQMNSMKPEDTAVYYCNAQFLVYFYWYSTTAYIMYYWGQGTQVTVSS | low polyreactivity
QLQLVESGGGLVQAGGSLRLSCAASGFTFQYYAMGWYRQAPCKERELVAVISRSGGRTYYADSVKGRFTISRDNAKYTVYLQMYSLKPEDTAVYYCAALSQPGQRDDNQYDYWGQGTQVTVSS | high polyreactivity
QVQLVESGGGLVQAGGSLRLSCAASVITFSYNAMGWYRQAPGKERELVAAISSNSDSTYYADSVKGRFTISRDIAKNTVYLQMNSLKPVDTAVYYCAADTPDAPDYSGFYYWGQGTQVTVSS | low polyreactivity
QVQLVESGGGLVQAGGSLRLSSAASGLIFVHYAMGWSRQAPGKERELVSAISFRGGRTYYADSVKGRFTISRDNAKNTVYVQMNSLKPEDTAVSYCAATIKAYPTPLLGDYWGQGTQVTVSS | high polyreactivity
QVQLVESGGGLVQAGGSLRLSCAASGSTLTYYTMGWYRQAPGKERELVARISWSSGRTYYADSVKGRFTISRDNAKNTVYLQMNSLKPEDTAVYYCNADRTYYRGLDYWGQGTQVTVSS | high polyreactivity
QVQLVESGGGLVQAGGSLRLSCAASGRSFSRNAMGWYRQAPGTERELVAGISSGGSTNYADSVKGRFTISPDTAKNTVYIQMNSLKPEDTAVYYCAKDSAEFVTRYDYWGQGTQVTLSS | low polyreactivity
QVQLVESGGGLVQAGGSLRLSSAASGFILRWYAMGWYRQAPGKERELVAAISWSGGSTYYADSVKGRFTISRDNAKNTVYLQMNSLKPEDTAVYYCNAVNYRNKYDYWGQGTQVTVSS | high polyreactivity
QVQLVESGGGLVQAGGSLRLSCAASGSIFANAMGWYRQAPGKEREVVAAISFSGGRTFYADSVKGRFTISRDNAKNTVYLQMNSLKPEDTAVYYCAKGKKSSRSGIYNYWGQGTQVTVSS | high polyreactivity
QVQRVESAGGLVQAGGSLRLSCAASGFIFSWYAMGWYRQAPGKERELVAAIRWSSGRTYYADSVKGRFTISRDNAKNTVYVQMNSLKPEDTAVYYCNARSDIHNSYDYWGQGTQVTVSS | high polyreactivity
QVQLVESGGGLVQAGGSLRLSCAASGFIFWSNAMGWYRQAPGKERELVAAISWSGGSTYYADSVKGRFTISRDNAKKTVYLQMNSLKPEDTAVYYCNTLNVQRDEHDYWGQGTQVTVSS | high polyreactivity
QVQLVESGGGLVQAGGSLRLSCAASGFTFWYYAMGWYRQAPGKERELVAAITYNGDRTYYADSVKGRFTISRDNAKNTVYLQMNSLKREDTAVYYCAVYLGIRSGTANDYWGQGTQVTVSS | high polyreactivity
QVQLVESRGGLVQAGGSLRLSCAASGSIFTSYAMGWYRQAPGKERELVAAINGSGGSTFYADSVKGRFTISRDNAKNTVYLQMNSLKPQDTAVYYCNTGGPRGTTYDYWGQGTQVTVSS | low polyreactivity
QVQLVESGGGLVQAGGSLRLSCAASGSTIRVYGMGWYRQAPGKERELVAAIRWIGGRTYYADSVKARFTISRDNAKNTVYLQMNSLKPEDTAVYYCNARAGPVRFDYWGQGTQVTVAS | low polyreactivity
QVQLVESGGGLVQAGGSLRLSCAASGITYGYVMGLYRQAPGKERELVAAISYRGGSTYYADSVKGRFTISRDNAKNTVYLQMNSLKPEDTAVYYCATEASGKTYGYVAYDYWGQGTQVTVSS | high polyreactivity
QFQLVESGGGLVQARGSLRLSCAPSGSTFGYYTMGWYRQAPGKERELVAAISWSGGSTYYADSVKGRFTISRDNAKNTVYLQMNSLKPEDTAVYYCAALGYTYKYYSYYWGQGTQVTVSS | high polyreactivity
QVQLVESGGGLVQAGGSLRLSCAASGSIFANNGMGWYRQAPGKERELVARISKRGGSTYYADSVKGRFTFSRDNAKNTVYLQMNSLKPEDTAVYYCNVRSWWGYTGPYDYWGQGTQVTVSS | high polyreactivity
QVQLVESGGGLVQAGGSLRLSCAASGITFGTYAMGWYRQAPGKERELDAAIDTSGDDTYYADSVKGRFTISRDNAKNTVYLQMNSLKPEDTAVYYCAADFPSAEVDYWGQGTQVTVSS | low polyreactivity
QVQLVESGGGLVQAGGSLRLSCAASGRTFRHYAMAWYRQAPGKERELVASIRWNGASTNYADSVKGRFTISRDNAKNTVYLQMNSLKPEDTAVYYCNARYLFYSGYVYWGQGTQVTVSS | high polyreactivity
QVPLVESGGGLVQAGGSLRLSCAASGSIFGQYAMGWYRQAPGKERELVAAIRDGTGSTYYAVSVKGRFTISRDNAKNTVYVQMNSLKPEDRAVYYCAADYIWTSIVHYEYWGQGTEVTVSS | high polyreactivity
QVQLVESGGGLVQAGGSLRLSCAASGSTFYLYAMGWYRQAPGKERELVASITSGDGSTYYADSVKGRFTISRDNPKNTVYLQMNSLKPEDTAVYDCNAVLEGWFYQDDYWGQGTQVSVSS | low polyreactivity

Sequence | polyreactivity (PSR sort gate)
QDQLVESGGCLVQAGGSLRLSCAASGGTFLYYAMGWYRQAPGKERELVAAISRGGSTHYADSVKGRFTISRDNAKNTVYLQMNSLKPEDTAVYYCAAVRSHRKRINFYDYWGQGTQVTVSS | low polyreactivity
QLQLVESGGGLVQAGGSLRLSCAASGSTFDVNAMGWYRQAPGKERELVAAISYSGGSTYYADSVKGRFTISRDNAKNTVYLQMNSLTPEDTAVYYCNAVFSRYSRLELGYWGQGTQVTVSS | high polyreactivity
QVQLVESGGGLVQAGGSLRLICAASGRIFWQYAMGWYRQAPGKERELVAAISRSGGSTYYADSVKGRFTISRDNAKNTVYLQMNSLKPEDTAVYYCAARKASGVPGSAGRPEYYYWGQGTQVTVSS | high polyreactivity
QVQLVESGGGLVQAGGSLRLSCAASGRIFGVYAMGWYRQAPGKERELVATITSGGSTSYADSVKGRFTISRDNAKNTVYLQMNSPKPEDTAVYYCNAPYSFFWQQMNYWGQGTQVTVSS | low polyreactivity
QVQLVESGGGLVQAGGSLRLSCAASGSIFSSYAMGWYRQAPGKERELVAAISTAGSTNYADSVKGRFTISRDNAKNTVYLQMNSLKPEDTAVYYCAADSGDQQSYGLDLNHDFDYWGQGTQVTVSS | low polyreactivity
QHQIVESGGGLVQAGGSLRLSCAASGSTIYRYAMGWYRQAPGKERELVAAISSSGGSTYYADSVKGRFTISRDNAKNTVYLQMNSLKPEDTAVYYCNAADRVRRFDYWGQGTQVTVSS | low polyreactivity
QVQLVESGVGLVQARGSLRLSCAASGIIFKKTVMGWYRPSPGKERECVAPITSRDGSTYYADSVKGRFTISRDNANNTVYLQMNSLKPEDTAVYYCAAEVYDGYEYEVWYDYCGQGTQVTVSS | high polyreactivity
QVQLVESGGGLVQAGGSLRLSCAASGRTISVYGMGWSRQAPGKERELVASITWRGGTTYYADSVKGRFTISRDNAKNSVYLQMNRLKPEDTAVYYCAAYWPYTTYRYRYDYWGQGTQVTVSS | high polyreactivity
QVQLVESGGGLVQAGGSLRLSCAASGFTFGENAMGWYRQAPGKEWELVATISDSGDSTYYADSVKGRFTISRDNAKNTVYLLMNSLKPEDTAVYDCNAEQVCYTYGRYPEWYLYGYWGQGTQVTVSS | low polyreactivity
QVQLVESGGGLVQAGGSLRLSCAASGFIFSKYGMGWYRQAPGKERELVAAISIRGGNTYYADSVKGRFTISRDNAKNTVYLQMNSLKPEDTAVYYCNALSYGRYLNYRGGMDYWGQGTQVTVSS | high polyreactivity
QVQLVESGGGLVQAGGSLRLSCAASGGTFSYNTMGWYRQAPGKERELVAVITFSGGSTYYADSVKGRFTISRDNAKNTVYLQMNSLKPEDTAVYYCNARSYPRWLRYDYWGQGTQVTVSS | low polyreactivity
QVQLVESGGGLVQAGGSLRLSCAASGTTIYTNAKGWYRQAPGKEREFVAAISWSGSSTYADSVKGRFTISRDNAKNTFYLQMNSLKPEDTAVYYCAADWFKQRTDYYWGQGTQVTVSS | low polyreactivity
QVQLVESGGGLVQAGGSLRLSCAASGSIFFANAMGWYRQAPGKERELVAAITGSGDITYYADSVKGRFTISRDNAKNTVYLQMNSLKPEDTAVYYCAKRYIYVTHLRHPRYYYWGQGTQVTVSS | low polyreactivity
QVHHVESGGVLVQARVSLRLSCAASGIIIAYYAVGWYGQAPGKESELVAAITSGGSTSYADSVKGRFTISRDNAKNTVYLQMISLKPEDTAVYYCNTDPSGYESGYWGQGTQVTVSS | low polyreactivity
LVQLQESGGGLVQAGGSLRLSCAASGTISPGGYMGWYRQAPGKERELVASINVGGSTNYADSVKGRFTISRDNAKNTVYLQMNSLKQEDNAVYYCAVWGRNRLQLSYWGQGTQVTVSS | low polyreactivity
QVQIGESGGGLVQAGGSRRLSCAASGLTFYLYAMGWYRQAPGKERELVAAITTSGGSTYYADSVKGRFTISRDNAKNTVYLQMNSLKPEDTAVYDCATQGAIRGYGYWGQGTQVTVSS | high polyreactivity
QVQQQESGGGLVQAGGSLRLSCAASGTIFQLTVMRRYRQAPGKERELVASIDYGGNTNYADSVKGRFTISRDNAKNTVYLQMNSLKPEDTAVYYCAASSDSWTTHPYWGQGTQVTVSS | low polyreactivity
QVQLVESGGGLVQAGGSLRLSCAASVRIYRPYAMGRYRQAPGKERELVAAISGSGGSTYYADSVKGRFTISRDNAKNTVYLQMNSLKPEDTAVYYCNAAPKWSDYFYPLEYWGQGTQVTVSS | low polyreactivity
QVQLVESGGGLVQAGGSLRLSCAASGSIFVDYAMGWYRQAPGKERELVAAISSGGSTNYADSVKGRFTISRDNAKNTVYLQMNSLKPEDTAVYYCAADGSYGYDYWGQGTQVTVSS | low polyreactivity
QVQLVESGGGLVPAGGSLRLSCAASGFTFDSYAMGWYRQAPGKERELVAAMSYRGGTTYYADSVKGRFTISRDNAKNTVYLQMNSLKPEDTAVYYCTRLWKYGYNYWGQGTQVTVSS | high polyreactivity
QVQLVESGGGLVQAGGSLRLSCAASGRTIGIYARGWYRQAPVKERELVADITIGGSTYYADSVKGRFTISRDNAKNTVFIQINSLKPEDTAVYYCAARNPGYTRTGRRYDSWGQGTQVTVSS | low polyreactivity
